Laboratory results reported in paper PMC11272584 (Nature Metabolism, 2024).
Substitutions are numbered along the chain they refer to. Numbers in names are those of the source.

T1: GIPR V399M (Homo sapiens, UniProt P48546, V399M)
T1 construct: host or cells: HEK293
T1 sequence (P48546 22-466 V399M): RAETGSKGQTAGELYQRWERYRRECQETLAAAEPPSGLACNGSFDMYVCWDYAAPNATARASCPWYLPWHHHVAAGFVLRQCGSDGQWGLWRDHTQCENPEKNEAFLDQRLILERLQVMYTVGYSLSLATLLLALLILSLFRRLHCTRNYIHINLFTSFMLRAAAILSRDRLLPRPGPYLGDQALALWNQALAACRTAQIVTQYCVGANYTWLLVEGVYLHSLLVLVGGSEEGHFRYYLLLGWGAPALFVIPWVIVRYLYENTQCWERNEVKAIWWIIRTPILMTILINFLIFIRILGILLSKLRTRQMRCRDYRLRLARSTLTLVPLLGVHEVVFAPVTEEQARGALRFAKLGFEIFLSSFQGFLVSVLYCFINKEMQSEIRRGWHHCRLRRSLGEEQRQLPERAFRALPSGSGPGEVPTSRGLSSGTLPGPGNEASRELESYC

T2: GIPR S382Y (Homo sapiens, UniProt P48546, S382Y)
T2 construct: host or cells: HEK293
T2 sequence (P48546 22-466 S382Y): T1 sequence (P48546 22-466 V399M) with S361Y, M378V

T3: GIPR K397N (Homo sapiens, UniProt P48546, K397N)
T3 construct: host or cells: HEK293
T3 sequence (P48546 22-466 K397N): T1 sequence (P48546 22-466 V399M) with K376N, M378V

T4: GIPR G449A (Homo sapiens, UniProt P48546, G449A)
T4 construct: host or cells: HEK293
T4 sequence (P48546 22-466 G449A): T1 sequence (P48546 22-466 V399M) with M378V, G428A

T5: GIPR E418K (Homo sapiens, UniProt P48546, E418K)
T5 construct: host or cells: HEK293
T5 sequence (P48546 22-466 E418K): T1 sequence (P48546 22-466 V399M) with M378V, E397K

T6: GIPR E461* (Homo sapiens, UniProt P48546)
T6 construct: host or cells: HEK293
T6 sequence (P48546 22-460 limits assumed): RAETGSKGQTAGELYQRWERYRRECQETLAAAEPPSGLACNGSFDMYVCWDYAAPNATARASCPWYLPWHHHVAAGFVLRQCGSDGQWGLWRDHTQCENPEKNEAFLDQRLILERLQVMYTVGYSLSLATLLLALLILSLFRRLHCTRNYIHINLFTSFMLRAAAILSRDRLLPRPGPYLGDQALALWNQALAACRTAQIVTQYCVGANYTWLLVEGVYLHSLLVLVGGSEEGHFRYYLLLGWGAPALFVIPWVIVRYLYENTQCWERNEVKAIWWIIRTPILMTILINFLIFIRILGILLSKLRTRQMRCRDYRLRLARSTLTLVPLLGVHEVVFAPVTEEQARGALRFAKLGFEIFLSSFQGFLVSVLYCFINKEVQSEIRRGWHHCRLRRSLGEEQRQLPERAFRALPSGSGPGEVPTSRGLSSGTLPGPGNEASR

T7: GIPR S415I (Homo sapiens, UniProt P48546, S415I)
T7 construct: host or cells: HEK293
T7 sequence (P48546 22-466 S415I): T1 sequence (P48546 22-466 V399M) with M378V, S394I

B1: V399M (protein)
chain: T1 sequence (P48546 22-466 V399M)
B2: S382Y (protein)
chain: T1 sequence (P48546 22-466 V399M) with S361Y, M378V
B3: K397N (protein)
chain: T1 sequence (P48546 22-466 V399M) with K376N, M378V
B4: S415I (protein)
chain: T1 sequence (P48546 22-466 V399M) with M378V, S394I
B5: E418K (protein)
chain: T1 sequence (P48546 22-466 V399M) with M378V, E397K
B6: G449A (protein)
chain: T1 sequence (P48546 22-466 V399M) with M378V, G428A
B7: E461* (protein)
chain: T6 sequence (P48546 22-460 limits assumed)
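Wherever Beta, Barr is given: BRET readout of β-arrestin 2 recruitment in transiently transfected HEK293 cells expressing WT GIPR or a GIPR variant plus GPCR kinase 2, Rluc8 donor and citrine acceptor.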
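Wherever In vitro groups (β-arrestin) is given: BRET readout of β-arrestin 2 recruitment in transiently transfected HEK293 cells expressing WT GIPR or a GIPR variant plus GPCR kinase 2, Rluc8 donor and citrine acceptor.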

These molecules were tested against T1, GIPR V399M (assay: cAMP accumulation). Settings: not given.
Format: cell-based
With B1 the “Efficacy at 100pmol (cAMP)” value was 0.2386.

Each molecule was assayed on GIPR variants (groups) (assay: cAMP accumulation). Settings: cAMP part of the in vitro group.
Format: cell-based, human
Procedure: HEK293 (CRL-1573, American Type Culture Collection) and β-arrestin 1/2 knockout cells, generated from HEK293A[48], were used for cAMP measurement, homologues competition binding and β-arrestin 2 recruitment. For the internalization assay, endosomal signalling and basal receptor localization experiments, HEK293A (R70507, Thermo Fisher) cells were used. Both cell lines were cultured at 5% CO2 at 37 °C in Roswell Park Memorial Institute GlutaMAX-I supplemented with 10% fetal bovine serum, 180 units ml^−1 penicillin, and 45 g ml^−1 streptomycin. For the cAMP and binding experiments, cells were transfected with the calcium phosphate precipitation method[49]. The polyethyleneimine (PEI) transfection method was used for the β-arrestin 2 recruitment assays[50], endosomal signalling and basal receptor localization assays, while the lipofectamine transfection method was used for the internalization assay.
cAMP production was measured with the DiscoverX Hithunter cAMP assay according to the manufacturer’s protocol (DiscoverX). […] On the day of the assay, the cells were washed twice with HEPES-buffered saline (HBS) and incubated with HBS and 1 mM 3-isobutyl-1-methylxanthine for 30 min at 37 °C. […] After the incubation, the assay medium was removed from the plate and the cells were washed with 30 µl PBS and treated with 40 µl enzyme donor–lysis buffer–chemiluminescent reagents and 10 µl cAMP antibodies for 60 min before 40 µl enzyme acceptor solution added. After a 3-h incubation on a shaking table in the dark, the cAMP accumulation was measured based on luminescence with a Perkin Elmer EnVision 2104 Multilabel Microplate Reader.
For cAMP accumulation, the data were fitted as a sigmoidal curve with a Hill slope of 1; for homologous competition binding, the data were fitted as a sigmoidal curve with a Hill slope of −1.
With B2 the “In vitro groups (cAMP)” value was “LoF_camp”.
B3 was tested, and the “In vitro groups (cAMP)” value was “WT-like_camp”.
B1 was tested, and the “In vitro groups (cAMP)” value was “LoF_camp”.
In the case of B4, the “In vitro groups (cAMP)” value is reported as “WT-like_camp”.
For B5, the “In vitro groups (cAMP)” value was “WT-like_camp”.
In the case of B6, the “In vitro groups (cAMP)” value is reported as “WT-like_camp”.
With B7 the “In vitro groups (cAMP)” value was “GoF_camp”.

Same assay, conditions: cAMP production compared with WT
With B2 the percentage_camp was <50% cAMP.
In the case of B3, the percentage_camp is reported as >50% cAMP.
In the case of B1, the percentage_camp is reported as <50% cAMP.
With B4 the percentage_camp was >50% cAMP.
In the case of B5, the percentage_camp is reported as >50% cAMP.
In the case of B6, the percentage_camp is reported as >50% cAMP.
With B7 the percentage_camp was >50% cAMP.

Same assay, conditions: in vitro cAMP production per GIPR variant
B2 was tested, and the “Beta, cAMP” value was 0.008271.
B3 was tested, and the “Beta, cAMP” value was 0.5221.
B1 was tested, and the “Beta, cAMP” value was 0.2386.
For B4, the “Beta, cAMP” value was 0.6572.
B5 was tested, and the “Beta, cAMP” value was 0.7942.
For B6, the “Beta, cAMP” value was 0.609.

These molecules were tested against T2, GIPR S382Y (assay: cAMP accumulation). Settings: not given.
Format: cell-based
In the case of B2, the “Efficacy at 100pmol (cAMP)” value is reported as 0.008271.

Each molecule was assayed against T3, GIPR K397N (assay: cAMP accumulation). Settings: not given.
Format: cell-based
For B3, the “Efficacy at 100pmol (cAMP)” value was 0.5221.

The molecules below were run on GIPR variants (groups) (assay: β-arrestin 2 recruitment (BRET)). Settings: arr part of the in vitro group.
For B2, the “In vitro groups (β-arrestin)” value was “LoF_arr”.
For B3, the “In vitro groups (β-arrestin)” value was “LoF_arr”.
B1 was tested, and the “In vitro groups (β-arrestin)” value was “LoF_arr”.
For B4, the “In vitro groups (β-arrestin)” value was “WT-like_arr”.
For B5, the “In vitro groups (β-arrestin)” value was “WT-like_arr”.
For B6, the “In vitro groups (β-arrestin)” value was “WT-like_arr”.
B7 was tested, and the “In vitro groups (β-arrestin)” value was “WT-like_arr”.

Same assay, conditions: in vitro β-arrestin recruitment per GIPR variant
With B2 the “Beta, Barr” value was 0.
With B3 the “Beta, Barr” value was 0.3822.
For B1, the “Beta, Barr” value was 0.
For B4, the “Beta, Barr” value was 0.9285.
B5 was tested, and the “Beta, Barr” value was 0.9111.
In the case of B6, the “Beta, Barr” value is reported as 0.5256.

What follows are molecules tested against T4, GIPR G449A (assay: cAMP accumulation). Settings: not given.
Format: cell-based
In the case of B6, the “Efficacy at 100pmol (cAMP)” value is reported as 0.609.

These molecules were tested against T5, GIPR E418K (assay: cAMP accumulation). Settings: not given.
Format: cell-based
For B5, the “Efficacy at 100pmol (cAMP)” value was 0.7942.

Each molecule was assayed against T6, GIPR E461* (assay: cAMP accumulation). Settings: not given.
Format: cell-based
With B7 the “Efficacy at 100pmol (cAMP)” value was 1.495.

Each molecule was assayed against T7, GIPR S415I (assay: cAMP accumulation). Settings: not given.
Format: cell-based
B4 was tested, and the “Efficacy at 100pmol (cAMP)” value was 0.6572.
